Assays:
Assay in all cases: SPR (Biacore T200), TREM1 ECD over antibody captured by anti-human Fc
[1] = target: T1, pig TREM1 ECD (in house, His tagged) (pig, UniProt Q6TYI6 21-210)
T1 construct: extracellular domain
T1 sequence (looked up): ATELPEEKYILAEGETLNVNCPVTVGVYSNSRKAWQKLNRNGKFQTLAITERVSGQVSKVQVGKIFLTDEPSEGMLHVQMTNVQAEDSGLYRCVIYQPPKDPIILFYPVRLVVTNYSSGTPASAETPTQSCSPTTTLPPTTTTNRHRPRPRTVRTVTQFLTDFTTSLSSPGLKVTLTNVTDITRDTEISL
Method: (§1) The species tested were human, cynomolgus, rhesus, marmoset, rat, mouse, dog and pig.
(§2) TREM1 ECD analyte (in house, His tagged) was injected at 3-fold serial dilutions in HBS-EP+ running buffer (GE Healthcare), top concentrations are shown in Table 15, and three-fold serial dilutions were performed to a bottom concentration of 2 nM. Buffer blank injections were included to subtract instrument noise and drift.

[2] = target: T2, marmoset TREM1 ECD (in house, His tagged) (marmoset, UniProt A0A8I3WDM5 21-206)
T2 construct: extracellular domain
T2 sequence: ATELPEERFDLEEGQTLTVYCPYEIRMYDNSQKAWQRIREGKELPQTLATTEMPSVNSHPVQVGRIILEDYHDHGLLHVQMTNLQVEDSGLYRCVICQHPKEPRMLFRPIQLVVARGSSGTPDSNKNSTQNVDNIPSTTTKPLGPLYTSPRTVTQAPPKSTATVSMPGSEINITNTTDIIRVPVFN
Method: as §1, §2

[3] = target: T3, mouse TREM1 ECD (in house, His tagged) (mouse, UniProt Q9JKE2 21-202)
T3 construct: extracellular domain
T3 sequence (looked up): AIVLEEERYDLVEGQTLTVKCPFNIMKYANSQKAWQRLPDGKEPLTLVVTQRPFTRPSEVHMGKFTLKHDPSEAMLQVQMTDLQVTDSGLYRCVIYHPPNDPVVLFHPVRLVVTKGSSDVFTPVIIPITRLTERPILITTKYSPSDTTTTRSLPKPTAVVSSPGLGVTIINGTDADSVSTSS
Method: as §1, §2

B1: 12172 gL2gH11 hIgG4P (antibody)
heavy: not shown
light: DIQLTQSPSFLSASVGDRVTITCQASQNIGSDLAWYQQKPGKAPKLLIYKAATLASGVPSRFSGSGSGTEFTLTISSLQPEDFATYYCQQYYYGSAGADTDTFGGGTKVEIKRTVAAPSVFIFPPSDEQLKSGTASVVCLLNNFYPREAKVQWKVDNALQSGNSQESVTEQDSKDSTYSLSSTLTLSKADYEKHKVYACEVTHQGLSSPVTKSFNRGEC
notes: Humanised IgG4P, human kappa; also called 12172gL2gH11 IgG4P
[1]
  binding result: no binding (tested: 490 nM)
[2]
  binding result: no binding (tested: 510 nM)
[3]
  binding result: no binding (tested: 520 nM)

From patent US20240254224A1 (UCB, published 2024)
